Source: publication PMC2790891

What was measured:
[1] = target: SsoDpo1 exonuclease mutant (D231A/D318A) (Sulfolobus solfataricus P2) (UniProt P26811); assay: native gel or EMSA
[2] = target: SsoDpo1 exonuclease mutant (D231A/D318A) (Sulfolobus solfataricus P2) (UniProt P26811); assay: ITC
[3] = target: T1, SsoDpo1 exo- (B-family DNA polymerase 1) (Sulfolobus solfataricus, UniProt P26811 1-882, D231A;D318A); assay: fluorescence anisotropy
T1 sequence: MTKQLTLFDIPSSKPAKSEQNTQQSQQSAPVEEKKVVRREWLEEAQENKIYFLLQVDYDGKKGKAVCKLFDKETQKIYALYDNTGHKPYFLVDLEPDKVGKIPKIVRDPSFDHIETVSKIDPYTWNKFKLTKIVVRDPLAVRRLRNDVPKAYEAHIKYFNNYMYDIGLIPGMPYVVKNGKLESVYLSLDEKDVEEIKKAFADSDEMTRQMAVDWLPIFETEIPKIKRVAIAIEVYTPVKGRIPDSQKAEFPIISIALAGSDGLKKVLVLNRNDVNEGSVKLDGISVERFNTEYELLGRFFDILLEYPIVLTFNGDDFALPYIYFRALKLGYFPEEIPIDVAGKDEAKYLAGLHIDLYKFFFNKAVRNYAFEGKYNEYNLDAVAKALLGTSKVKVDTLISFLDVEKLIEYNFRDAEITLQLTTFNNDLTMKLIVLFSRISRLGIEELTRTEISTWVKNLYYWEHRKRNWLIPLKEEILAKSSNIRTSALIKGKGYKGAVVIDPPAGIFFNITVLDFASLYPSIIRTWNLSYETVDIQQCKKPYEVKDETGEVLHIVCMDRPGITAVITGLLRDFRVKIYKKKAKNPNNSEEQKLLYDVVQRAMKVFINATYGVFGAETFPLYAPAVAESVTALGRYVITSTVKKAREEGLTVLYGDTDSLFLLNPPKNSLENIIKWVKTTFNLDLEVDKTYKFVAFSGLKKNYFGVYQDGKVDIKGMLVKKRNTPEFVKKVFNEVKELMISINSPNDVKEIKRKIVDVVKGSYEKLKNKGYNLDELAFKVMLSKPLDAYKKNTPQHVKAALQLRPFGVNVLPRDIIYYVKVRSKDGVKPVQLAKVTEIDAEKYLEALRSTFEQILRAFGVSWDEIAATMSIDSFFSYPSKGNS

[4] = target: T1, SsoDpo1 exo- (B-family DNA polymerase 1); assay: EMSA
[5] = target: T1, SsoDpo1 exo- (B-family DNA polymerase 1); assay: ITC

SsoDpo1 exonuclease mutant (D231A/D318A) (from UniProt P26811 1-882) (enzyme)
stoichiometry N [1]: 3.5 | stoichiometry N [2]: 2.84

B1: Cy5 p/tDNA hairpin (structured_DNA)
DNA: TTTTTTTTTTTTTTTCGAATGGCGCTTTGCCTGGTTTTTACCAGGCAAAGCGCCATTCG
binding result [3]: binds

B2: long p/tDNA 28/66-mer (dsDNA)
DNA 1: CACCTCTCCCTACGCTTCCCACCCACCCCGACCGGCATCTGCTATGGTACGCTGAGCGAGAGTAGC
DNA 2: GCTACTCTCGCTCAGCGTACCATAGCAG
Kd [4]: 0.1 ± 0.01 nM

B3: short p/tDNA 21/31-mer (dsDNA)
DNA 1: GCTGTGCTCTCGCCGCGTGCC
DNA 2: TATCTTCTATGGCACGCGGCGAGAGCACAGC
Kd [5]: 1200 ± 100 nM
